# From publication PMC11021425, “Salmonella manipulates macrophage migration via SteC-mediated myosin light chain activation to penetrate the gut-vascular barrier” (The EMBO Journal, 2024)
# T1: Myl12a, biotinylated (murine, UniProt Q6ZWQ9 1-172, biotin (EZ-Link biotin, MCR = 1:1))
# T1 chain: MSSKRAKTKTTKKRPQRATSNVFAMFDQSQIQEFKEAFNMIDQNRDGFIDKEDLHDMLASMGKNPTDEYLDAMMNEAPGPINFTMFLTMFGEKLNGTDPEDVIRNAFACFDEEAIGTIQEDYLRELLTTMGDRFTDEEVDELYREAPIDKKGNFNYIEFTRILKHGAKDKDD
# B1: SteC 194 aa–364 aa (domain or fragment)
# chain: ATASGYESGAIDQTDASQPAAIEAFINSPEFQKNIRMRDIEKNKIGSGSYGTVYRLHDDFVVKIPVNERGIKVDVNSPEHRNCHPDRVSKYLNMANDDKNFSRSAIMNINGKDVTVLVSKYIQGQEFDVEDEDNYRMAEALLKSRGVYMHDINILGNILVKEGVLFFVDGD
# B2: SteC 168 aa–364 aa fragment (domain or fragment)
# chain: LPPSEAGSNGIYEAFEQRLIDFLTTPATASGYESGAIDQTDASQPAAIEAFINSPEFQKNIRMRDIEKNKIGSGSYGTVYRLHDDFVVKIPVNERGIKVDVNSPEHRNCHPDRVSKYLNMANDDKNFSRSAIMNINGKDVTVLVSKYIQGQEFDVEDEDNYRMAEALLKSRGVYMHDINILGNILVKEGVLFFVDGD
# How the values were obtained:
# [1] = target: T2, SteC FL (full-length SteC) (Salmonella enterica, UniProt D0ZIB5); assay: Phos-tag gel kinase assay; assay type: biochemical; conditions: phosphate donor, 100 μM; acceptor murine Myl12a; 10 mM MgCl2/MnCl2, pH 7.5, 30 °C
# T2 construct: full-length (457 aa), expressed in E. coli BL21(DE3) from pGL01, Ni-NTA, His-tag removed by PPase, Superdex 200; dimeric catalysis inferred from the kinase domain structure
# T2 sequence (D0ZIB5 whole entry, the tested form may be a part): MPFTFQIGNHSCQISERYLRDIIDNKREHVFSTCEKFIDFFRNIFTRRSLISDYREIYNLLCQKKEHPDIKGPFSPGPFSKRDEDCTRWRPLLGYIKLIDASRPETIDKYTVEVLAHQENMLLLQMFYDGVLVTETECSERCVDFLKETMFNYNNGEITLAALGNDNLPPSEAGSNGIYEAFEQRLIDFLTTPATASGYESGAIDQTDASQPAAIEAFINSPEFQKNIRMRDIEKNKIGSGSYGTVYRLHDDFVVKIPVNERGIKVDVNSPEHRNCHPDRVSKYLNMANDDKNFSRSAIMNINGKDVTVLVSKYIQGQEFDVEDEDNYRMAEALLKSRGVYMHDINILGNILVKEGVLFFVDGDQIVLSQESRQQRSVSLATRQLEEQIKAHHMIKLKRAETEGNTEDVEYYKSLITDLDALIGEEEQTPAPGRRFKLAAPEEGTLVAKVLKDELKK
# Myl12a, biotinylated [2] = target: Myl12a, biotinylated (UniProt Q6ZWQ9); assay: BLI
# [3] = tested on: Nc1nc2c(ncn2[C@@H]2O[C@H](COP(=O)(O)OP(=O)(O)OP(=O)(O)O)[C@@H](O)[C@H]2O)c(=O)[nH]1; assay: purified protein; conditions: phosphate donor, acceptor murine Myl12a, 10 mM MnCl2, 25 mM Tris-HCl pH 7.5, 1 mM DTT, 30 °C, 30 min
# [4] = tested on: O=c1ccn([C@@H]2O[C@H](COP(=O)(O)OP(=O)(O)OP(=O)(O)O)[C@@H](O)[C@H]2O)c(=O)[nH]1; assay: purified protein; conditions: phosphate donor, acceptor murine Myl12a, 10 mM MnCl2, 25 mM Tris-HCl pH 7.5, 1 mM DTT, 30 °C, 30 min
# [5] = target: Myl12a, biotinylated (murine) (UniProt Q6ZWQ9); assay: BLI
# Myl12a, biotinylated [6] = target: T1, Myl12a, biotinylated; assay: BLI
molecule,measurement,setting,value
Nc1ccn([C@@H]2O[C@H](COP(=O)(O)OP(=O)(O)OP(=O)(O)O)[C@@H](O)[C@H]2O)c(=O)n1 [CTP],Phos-tag gel kinase assay,[1],"SteC can employ all four nucleotides (ATP, CTP, UTP, and GTP) for phosphorylation"
Native SteC mut1,Kd,"Myl12a, biotinylated [2]",1090 nM
Native SteC mut4,Kd,"Myl12a, biotinylated [2]",1110 nM
SteC FL (full-length SteC) (Salmonella enterica subsp. enterica serovar Typhimurium str. 14028S),Km,[3],5.84 µM
same,Km,[4],5.53 µM
SteC full-length protein (natural protein),Kd,[5],1340 nM
SteC-C (194 aa–457 aa) (domain or fragment),Kd,[5],23300 nM
B1,Kd,"Myl12a, biotinylated [6]",8830 nM
B2,Kd,"Myl12a, biotinylated [6]",710 nM
